Target: E5 C77S mutant
Assay: SEC; analytical gel filtration, Superdex 75 10/300 GL, 0.5 ml/min, 50 mM phosphate buffer with 150 mM NaCl, in the presence of a reducing agent; mass from protein standards

stoichiometry N: 6
Substance: E5 C77S mutant (enzyme)
